Experimental data reported in patent US20010010919A1 (published 2001).

Target: T1, orphanin FQ receptor (rat, UniProt P35370 1-367)
T1 chain: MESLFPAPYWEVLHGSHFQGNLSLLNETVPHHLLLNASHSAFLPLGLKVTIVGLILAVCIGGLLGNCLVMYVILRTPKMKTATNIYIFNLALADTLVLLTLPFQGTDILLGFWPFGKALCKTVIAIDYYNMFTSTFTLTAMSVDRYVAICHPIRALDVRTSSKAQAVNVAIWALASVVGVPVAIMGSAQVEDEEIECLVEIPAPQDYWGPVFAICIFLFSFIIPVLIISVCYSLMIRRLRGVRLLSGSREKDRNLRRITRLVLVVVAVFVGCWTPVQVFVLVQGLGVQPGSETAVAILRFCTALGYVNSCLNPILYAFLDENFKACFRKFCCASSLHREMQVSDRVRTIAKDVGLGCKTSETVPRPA
Test: cell-based or functional assay

FGGFTGARKSARKYANQ [Y14-orphanin FQ]
EC50, cAMP inhibition assay: 1 nM
